Test results: the Human Domainome abundance scans (Beltran et al. 2025)
± gives the uncertainty stated by the source.

Test: abundance fitness (aPCA) (normalised: wild type 0, dead -1); higher = more abundant; growth selection in yeast, the domain comes from the species named
Details: Homo sapiens

Row | Substance | abundance fitness
1 | Transcriptional activator Myb H184G, P10242 | -0.855 ± 0.054
2 | Transcriptional activator Myb H184L, P10242 | -0.623 ± 0.052
3 | Transcriptional activator Myb H184M, P10242 | -0.623 ± 0.061
4 | Transcriptional activator Myb H184N, P10242 | -0.817 ± 0.067
5 | Transcriptional activator Myb H184P, P10242 | -0.81 ± 0.098
6 | Transcriptional activator Myb H184Q, P10242 | -0.598 ± 0.08
7 | Transcriptional activator Myb H184R, P10242 | -0.055 ± 0.062
8 | Transcriptional activator Myb H184S, P10242 | -0.854 ± 0.067
9 | Transcriptional activator Myb H184T, P10242 | -1.07 ± 0.095
10 | Transcriptional activator Myb H184V, P10242 | -0.684 ± 0.048
11 | Transcriptional activator Myb H184W, P10242 | -0.298 ± 0.073
12 | Transcriptional activator Myb H184Y, P10242 | -0.001 ± 0.052
13 | Transcriptional activator Myb I154A, P10242 | -0.215 ± 0.054
14 | Transcriptional activator Myb I154C, P10242 | -0.328 ± 0.093
15 | Transcriptional activator Myb I154D, P10242 | -0.5 ± 0.12
16 | Transcriptional activator Myb I154E, P10242 | -0.5 ± 0.076
17 | Transcriptional activator Myb I154F, P10242 | -0.914 ± 0.13
18 | Transcriptional activator Myb I154G, P10242 | -0.777 ± 0.057
19 | Transcriptional activator Myb I154H, P10242 | -0.59 ± 0.12
20 | Transcriptional activator Myb I154K, P10242 | 0.008 ± 0.095
21 | Transcriptional activator Myb I154L, P10242 | -0.187 ± 0.055
22 | Transcriptional activator Myb I154M, P10242 | -0.296 ± 0.085
23 | Transcriptional activator Myb I154N, P10242 | -1.14 ± 0.3
24 | Transcriptional activator Myb I154P, P10242 | -0.807 ± 0.12
25 | Transcriptional activator Myb I154Q, P10242 | -0.216 ± 0.11
26 | Transcriptional activator Myb I154R, P10242 | -0.23 ± 0.046
27 | Transcriptional activator Myb I154S, P10242 | -0.527 ± 0.062

Row | Substance | abundance fitness
28 | Transcriptional activator Myb I154T, P10242 | -0.185 ± 0.077
29 | Transcriptional activator Myb I154V, P10242 | -0.03 ± 0.05
30 | Transcriptional activator Myb I154Y, P10242 | -0.65 ± 0.13
31 | Transcriptional activator Myb I155A, P10242 | -0.503 ± 0.065
32 | Transcriptional activator Myb I155C, P10242 | -0.346 ± 0.095
33 | Transcriptional activator Myb I155D, P10242 | -0.779 ± 0.15
34 | Transcriptional activator Myb I155E, P10242 | -0.521 ± 0.092
35 | Transcriptional activator Myb I155F, P10242 | -0.467 ± 0.14
36 | Transcriptional activator Myb I155G, P10242 | -0.894 ± 0.064
37 | Transcriptional activator Myb I155H, P10242 | -1.04 ± 0.21
38 | Transcriptional activator Myb I155K, P10242 | -0.736 ± 0.11
39 | Transcriptional activator Myb I155L, P10242 | -0.068 ± 0.069
40 | Transcriptional activator Myb I155M, P10242 | -0.178 ± 0.12
41 | Transcriptional activator Myb I155N, P10242 | -0.645 ± 0.17
42 | Transcriptional activator Myb I155P, P10242 | -0.945 ± 0.14
43 | Transcriptional activator Myb I155Q, P10242 | -0.786 ± 0.13
44 | Transcriptional activator Myb I155R, P10242 | -0.935 ± 0.067
45 | Transcriptional activator Myb I155S, P10242 | -0.916 ± 0.13
46 | Transcriptional activator Myb I155T, P10242 | -0.535 ± 0.083
47 | Transcriptional activator Myb I155V, P10242 | -0.187 ± 0.075
48 | Transcriptional activator Myb I155Y, P10242 | -1.21 ± 0.21
49 | Transcriptional activator Myb I169A, P10242 | -0.477 ± 0.1
50 | Transcriptional activator Myb I169C, P10242 | -0.521 ± 0.14
51 | Transcriptional activator Myb I169D, P10242 | -0.679 ± 0.13
52 | Transcriptional activator Myb I169E, P10242 | -0.641 ± 0.12
53 | Transcriptional activator Myb I169F, P10242 | -0.516 ± 0.12
54 | Transcriptional activator Myb I169G, P10242 | -0.681 ± 0.071
